Assay: soluble on expression in E. coli; label from the status in PepcDB or PDB records

Soluble on expression in E. coli, not soluble:
MGSDKIHHHHHHVAQDVITQAPLGFGLGLRTQHFDAVLNTEPDIDWFEVLSENYMVAGGKPRYYLKEIGERYPLVMHGVSLSIGSTDPLNMDYLKALKQLANDVQPQWISDHICWTSIHGVNSHDLLPLPYTEETVKHVAQRIKTVQDFLGRRILMENVSSYLSYQDSSMDEWEFVNAVAEAADCLILLDINNIYVSARNHNFNPLDYLNKINPKRVQQFHLAGHSDYGDYVIDTHDHDVPSCVWDLYCAALKRFGGISTMIERDANIPEFYALEAELTIARNIARDTLGKAHPLNAAKNRKNMHEGKVIA
MKFTSATGSGQQGSSSGTTNSAGNPDSLKQDKVDKSGDSVTVAETTSGDNLTNYTNLPPNLTPTADPNALSFTNKNNAQRAQLFLRALLGSIPVLVNKSGQDDLEHHHHHH
MGSDKIHHHHHHMAARLREFRRAIGDPDREEFARSIGVSKTTLASYERGESEPTASVLFAYREKHGADVLWLVGGEGEMRGSQLSSAAVAERDFVLMPQYDVCASAGTGRLPVNQMPTSETAFERKFLRDLGGAPDHCFLMWSTGDSMLPSIPDNALLIVDASQTTVDHGRIYVFSVGNAVLVKRANWRMDGRLDLISDNTAGKYPVETFDANRVEDLAVVGRVIFVGHPP
MAHHHHHHMNYAAVINGPFSSNNGNNHYSRLGYTPNGYGPQPNTTEQNPQMVPYQTFNSAAGQPVNVYQQIPPTSASRDPRTNIHIGSKLFVGQVPAMTTEEQLRPVFEPYGELLEVKIMRDPLGRSKGSAWVRYETNEMAMNAINALHEKHTVPPQTNPLRVQFATPNSVRHQQLQARYAVELKVPMNQYNFGGQMGGGTQQSGMVMLRSGASPNVVPPISANVGGRYMSAPFGGGPMESSSIMSGPYTSSANCFDGVNSSGNRRDLYSPLEQPQGTAPQLYQQQQQQQRGGFSSPVVTPPSVYNQASSTRQPTARNNNTKSGGGISMGSFESGHGMVNPNSNGAPTMANEMSTLDAGIALWEARNNNGLQGQEPREAAARVRSGERKEE
MSDSSNQLMPLSLSAPGVNLGAYISTVNQIPILTAEQEKELAERYYYDQDLDAAKMLVMSHLRFVVHIARSYAGYGLPQGDLIQEGNLGLMKAVKRFDPNMGVRLVSFAVHWIKAEIHEYVIRNWRIVKIATTKAQRKLFFNLRSLKKSSKKLTLEEAQSIANDLNVTPEQVLEMEGRLTAYDAAFETQGDDDDDSSTHVAPALYLEDNRYDPARLAENDDYEEQSSTALHEAMNQLDDRSRNILQRRWLDDDKSTLHELAAEYNVSAERIRQLEKNAMEKIKVAMSAG
MSLENKIVKIEPQSIAEEMGIEVGDSLISINGKEVKDIIDYRFLMADEYVVVKIQKTNKEIWELEIEKEYDEKLGVEFESGILDSAKSCRNKCIFCFIDQLPKGMRKTLYFKDDDSRLSFLQGNFVTLTNMSDDDIDRIIKYRISPINISVQTTNPELRKKMLNNKFAGNLMERMKKLSNAGITMNCQVVLCPGINSGEEFSKTVNDLYKLYPSVKNIAGVPVGITSYREGLFNMVPYDSQSALKEIENIKPIQEKFIKEIGSPFVRLSDEFYVLSGIPIPKAEFYGEFEQFEDGIGMIRTFRDNINMSLDNLKDGIHKSFTMVTGVLAYEEIENAAKMLMEKSRGLKINVIKVINEFFGEKITVAGLLTGRDILNYLKRNEVGDYIILPSNMLKSDEDVFLDDVKVLDIEKELNKKVLVCNYSGEDLVDIINKNGREEEGHHHHHH
MSVSHAQLKAFHAVAVYGSFTRAAERLFLTQPAVSDQVRKLEERYGVLLFHRNKRSVRLSELGERLLAVTQRLFAIEAEAEELLSASSALQTGTLTLAVDAPVHVLPQIARFCERYPGIAVRVETGNTDESLQRLFSYQADLALLGRDVSDERLLSLTLRNDPIVAFVSLSHPWAGRESIRLADLDDMPLVLREQGSVTRQTLEEEMSRAGLRICPAIQVEGREASREAVVAGIGVGVVSAAEFGADTRVHALPIVDCQRRLTETLVCLREQRSRRIVETFLDLVGEDLPAPS

Reference: the DeepSol protein solubility set
